Experimental data taken from patent US7122646.

Key:
hen egg lysozyme (hen) [1] = target: hen egg lysozyme (hen) (UniProt P00698); test: phage ELISA with 50 µl phage supernatant, sheep anti-M13 detection; background 0.1
hen egg lysozyme (hen) [2] = target: hen egg lysozyme (hen) (UniProt P00698); test: BIAcore, HEL coated chip

UniProt P00698, sequence (P00698 19-147 limits assumed): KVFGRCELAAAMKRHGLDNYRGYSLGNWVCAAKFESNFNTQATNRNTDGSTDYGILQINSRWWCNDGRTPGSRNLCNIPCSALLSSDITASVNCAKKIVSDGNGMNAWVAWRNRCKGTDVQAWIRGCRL

Substance: NQ11/D1.3/0 bispecific diabody displayed on the surface of phage (bispecific antibody)
- absorbance signal (hen egg lysozyme (hen) [1]): 2.8

Substance: bispecific NQ11/D1.3 diabody, construct VI, 5 residue linkers (bispecific antibody)
- koff (hen egg lysozyme (hen) [2]): 0.0022 s⁻¹

Substance: chimaeric D1.3 Fab fragment
- koff (hen egg lysozyme (hen) [2]): 0.003 s⁻¹
